Laboratory results reported in US20220289825A1 (NANJING SHUNXIN PHARMACEUTICALS CO LTD OF CHIATAI TIANQING …, published 2022).
Several values for one entry are separate records, joined by “and”; a condition that tells them apart may be missing. Identical values can stand only once.

Target: PD-L1 on CHO-PDL1-CD3L cells (UniProt Q9NZQ7 19-290, limits assumed)
Experiment: cell-based or functional assay

Sequence of PD-L1 on CHO-PDL1-CD3L cells (Q9NZQ7 19-290 limits assumed): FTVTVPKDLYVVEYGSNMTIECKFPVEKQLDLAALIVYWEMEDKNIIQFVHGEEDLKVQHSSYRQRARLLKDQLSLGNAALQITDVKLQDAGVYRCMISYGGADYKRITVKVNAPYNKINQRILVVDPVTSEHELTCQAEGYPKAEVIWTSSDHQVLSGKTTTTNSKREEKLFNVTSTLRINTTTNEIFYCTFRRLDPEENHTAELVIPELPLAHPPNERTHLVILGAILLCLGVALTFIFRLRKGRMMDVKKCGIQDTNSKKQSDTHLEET

Biological activity (EC50 of reference sample/EC50 of test sample x 100%): 100%
EC50 (nmol/L), reporter gene assay (CHO-PDL1-CD3L + Jurkat-PD-1-NFAT, luciferase RLU): 4.6 nmol/L and 4.15 nmol/L
B1: PD-L1 antibody (humanized 5G11-IgG1 antibody of CN107001463) (antibody, V domains shown)
VH: QITLKESGPTLVKPTQTLTLTCTVSGFSLSTYGVHWIRQPPGKALEWLGVIWRGVTTDYNAAFMSRLTITKDNSKNQVVLTMNNMDPVDTATYYCARLGFYAMDYWGQGTLVTVSS
VL: DIQMTQSPSSLSASVGDRVTITCKASQSVSNDVAWYQQKPGKAPKLLIYYAANRYTGVPDRFSGSGYGTDFTFTISSLQPEDIATYFCQQDYTSPYTFGQGTKLEIKR
